Experimental findings from article PMC5959238 (Genes & Development, 2018) are described below.

The target of assay [1] is T1, cap-binding complex (CBC): preformed complex of CBP80–CBP20 (human, UniProt Q09161;P52298, Δ2–23).
T1 sequence 1: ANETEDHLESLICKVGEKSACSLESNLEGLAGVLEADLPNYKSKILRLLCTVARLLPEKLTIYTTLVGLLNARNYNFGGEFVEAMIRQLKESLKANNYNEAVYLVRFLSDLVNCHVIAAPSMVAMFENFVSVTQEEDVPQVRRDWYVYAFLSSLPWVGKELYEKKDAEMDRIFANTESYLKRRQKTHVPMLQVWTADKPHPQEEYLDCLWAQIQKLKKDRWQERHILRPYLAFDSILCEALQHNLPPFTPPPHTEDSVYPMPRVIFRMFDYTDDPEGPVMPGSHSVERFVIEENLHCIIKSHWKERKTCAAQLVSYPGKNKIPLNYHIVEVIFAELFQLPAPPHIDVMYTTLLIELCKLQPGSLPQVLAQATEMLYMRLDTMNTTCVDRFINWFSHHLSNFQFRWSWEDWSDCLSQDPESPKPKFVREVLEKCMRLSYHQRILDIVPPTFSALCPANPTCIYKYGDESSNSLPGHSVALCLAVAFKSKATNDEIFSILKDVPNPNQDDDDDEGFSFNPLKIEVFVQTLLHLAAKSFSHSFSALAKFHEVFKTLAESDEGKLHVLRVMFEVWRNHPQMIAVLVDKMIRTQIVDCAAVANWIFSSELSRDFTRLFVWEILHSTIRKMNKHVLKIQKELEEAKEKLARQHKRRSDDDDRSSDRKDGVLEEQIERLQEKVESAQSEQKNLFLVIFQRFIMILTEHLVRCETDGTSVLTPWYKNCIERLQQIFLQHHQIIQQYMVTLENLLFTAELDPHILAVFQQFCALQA
T1 sequence 2: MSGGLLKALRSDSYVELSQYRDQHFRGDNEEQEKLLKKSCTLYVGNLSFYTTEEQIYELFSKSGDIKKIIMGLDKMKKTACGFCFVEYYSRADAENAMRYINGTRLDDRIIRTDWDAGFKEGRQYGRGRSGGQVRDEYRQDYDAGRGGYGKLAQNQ
The experiment in a line: fluorescence polarisation. (Polarisation of emitted light reports the rotation of a fluorescent probe.)

Assay [2] has as its target T2, HIS-TEV-tagged CBP80(Δ2–23) (human, UniProt Q09161 24-790, Δ2–23).
T2 sequence: T1 sequence 1
The experiment in a line: crystal structure.

For assay [3], the target named is T1, cap-binding complex (CBC): preformed …. The experiment in a line: crystal structure.
The target of assay [4] is T2, HIS-TEV-tagged CBP80(Δ2–23). The experiment in a line: pull-down.

Non-standard residues stand in square brackets, D forms with d. No end group written: not given here. Tyr(3-I) = N[C@@H](Cc1ccc(O)c(I)c1)C(=O)O

For MDFDSLLKEAQQS [PGC-1β peptide, amino acids 1009–1021], in assay [1], the binding result is on record as “binds”.
On the same count and under the same terms, the entry for MDFDSLLKEGQQS [PGC-1β-10G] is “binds”.
On to Ac-SEEALPASGKSK[Tyr(3-I)]EAMDFDSLLKEAQQSLH (not fully specified) [synthetic PGC-1β peptide spanning amino acids 994–1023], for which the binding result in assay [2] and in assay [3] was “binds” throughout.

B1: CBP20 (natural protein)
chain: T1 sequence 2
Turning to B1, the binding result in assay [2] is on record as “binds”.
As to PASGKSKYEAMDFDSLLKEAQQSLH (domain or fragment) [PGC-1β amino acids 999–1023], in assay [4], the binding result was “binds”.
